In publication PMC11782662, “Phase separation of a microtubule plus-end tracking protein into a fluid fractal network” (Nature Communications, 2025):

Molecular target: the molecule itself
Test: SEC-SAXS; Shodex KW-404 column in line with SAXS; 20 mM Tris-HCl, pH 7.5, 500 mM NaCl, 2% glycerol, 1 mM DTT; injected at 4, 6 and 8 mg/ml; ab initio envelopes (DAMMIF)

| Protein | binding result | stoichiometry N |
| --- | --- | --- |
| Bik1 ΔQQFF (domain or fragment, S. cerevisiae, UniProt P11709 1-436, looked up, Bik1, S. cerevisiae, UniProt P11709, lacking the C-terminal EEY/F-like motif (peptide Gln-Gln-Phe-Phe); N-terminal 6xHis-tag followed by a PreScission site, tag retained; source: E. coli BL21-CodonPlus (DE3)-RIPL, purified (IMAC, SEC); not shown: His6, N-terminal, kept) MDRYQRKIGCFIQIPNLGRGQLKYVGPVDTKAGMFAGVDLLANIGKNDGSFMGKKYFQTEYPQSGLFIQLQKVASLIEKASISQTSRRTTMEPLSIPKNRSIVRLTNQFSPMDDPKSPTPMRSFRITSRHSGNQQSMDQEASDHHQQQEFGYDNREDRMEVDSILSSDRKANHNTTSDWKPDNGHMNDLNSSEVTIELREAQLTIEKLQRKQLHYKRLLDDQRMVLEEVQPTFDRYEATIQEREKEIDHLKQQLELERRQQAKQKQFFDAENEQLLAVVSQLHEEIKENEERNLSHNQPTGANEDVELLKKQLEQLRNIEDQFELHKTKWAKEREQLKMHNDSLSKEYQNLSKELFLTKPQDSSSEEVASLTKKLEEANEKIKQLEQAQAQTAVESLPIFDPPAPVDTTAGRQQWCEHCDTMGHNTAECPHHNPDN | binds |  |
| N-terminally His-tagged, full-length Bik1 (natural protein, S. cerevisiae, UniProt P11709 1-440, looked up, Bik1, S. cerevisiae, UniProt P11709, full length (domains described over residues 1-440); Vector PSPCm2: N-terminal 6xHis-tag followed by a PreScission cleavage site; also called Bik1 FL; FL; source: E. coli BL21-CodonPlus (DE3)-RIPL, purified (IMAC, SEC); not shown: His6, N-terminal, kept) MDRYQRKIGCFIQIPNLGRGQLKYVGPVDTKAGMFAGVDLLANIGKNDGSFMGKKYFQTEYPQSGLFIQLQKVASLIEKASISQTSRRTTMEPLSIPKNRSIVRLTNQFSPMDDPKSPTPMRSFRITSRHSGNQQSMDQEASDHHQQQEFGYDNREDRMEVDSILSSDRKANHNTTSDWKPDNGHMNDLNSSEVTIELREAQLTIEKLQRKQLHYKRLLDDQRMVLEEVQPTFDRYEATIQEREKEIDHLKQQLELERRQQAKQKQFFDAENEQLLAVVSQLHEEIKENEERNLSHNQPTGANEDVELLKKQLEQLRNIEDQFELHKTKWAKEREQLKMHNDSLSKEYQNLSKELFLTKPQDSSSEEVASLTKKLEEANEKIKQLEQAQAQTAVESLPIFDPPAPVDTTAGRQQWCEHCDTMGHNTAECPHHNPDNQQFF |  | 2 |
